# Laboratory results from patent publication US20160138004A1 (Hoffmann-La Roche, published 2016).
# T1: Thermus thermophilus SlyD-IGF-1(74-90) fusion polypeptide
# T1 construct: also called Thermo Thermophilus SlyD-IGF-1 fusion polypeptide; Thermus thermophilus-IGF-1 fusion polypeptide
# T1 chain: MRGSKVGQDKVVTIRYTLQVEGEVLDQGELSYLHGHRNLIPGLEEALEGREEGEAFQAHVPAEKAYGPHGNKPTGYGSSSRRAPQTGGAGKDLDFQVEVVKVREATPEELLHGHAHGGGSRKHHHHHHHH
# B1: <IGF-1>M-11.11.17 (antibody, V domains shown)
# VH: QVQLQQSGAELVRPGSSVKISCKASGYAFSNLWMNWVKQRPGQGLEWIGQIYPGDGDTNYYGDFKGKATLTADSSSSTAYMQLSRLTSEDSAVYFCARIGYYGMDYWGQGTSVTVSS
# VL: DVVLTQTPLSLPVNIGDEASISCKSTKSLLSSDGLTYLDWYLQKPGQSPQVLIYLVSNRFSGVPDRFSGSGSGTDFTLKISRVEAEDLGVYYCFQSNYLPTFGAGTKLELK
# Experiments:
# [1] = target: T1, Thermus thermophilus SlyD-IGF-1(74-90) …; test: SPR at 37 °C, clone culture supernatant antibody captured
# [2] = target: T2, native recombinant human IGF-1 (human, UniProt P05019 49-118); test: as above
# T2 construct: In the ELISAs it was biotinylated and held on streptavidin plates; also called native IGF-1; native human IGF-1 (Peprotech)
# [3] = target: T1, Thermus thermophilus SlyD-IGF-1(74-90) …; test: SPR at 25 °C, mAb captured, antigen as analyte
# [4] = target: T1, Thermus thermophilus SlyD-IGF-1(74-90) …; test: ELISA, clone culture supernatant
# [5] = target: T2, native recombinant human IGF-1; test: SPR kinetics at 37 °C, clone culture supernatant, IGF-1 as analyte
binder,measurement,setting,value
B1,koff,[1],1e-05 s⁻¹
same,koff,[2],1e-05 s⁻¹
same,Kd,[3],0.01 nM
same,koff,[3],1e-05 s⁻¹
same,kon,[3],710000 M⁻¹ s⁻¹
same,reactivity,[4],2150 mE
same,Ka,[5],2.2e+10 M⁻¹
same,Kd,[5],0.046 nM
same,koff,[5],0.00014 s⁻¹
same,kon,[5],3.1e+06 M⁻¹ s⁻¹
